This assay has as its system H1 or H9 human embryonic stem cells. The assay is described as follows: Activin A bioassay: differentiation of human embryonic stem cells to definitive endoderm, cell number and SOX17 intensity by high content analysis (96-well, four days).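 As to Cell Number average: Raw total cell count per well from high content imaging.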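 As to Sox 17 Intensity average: total fluorescence of the cell multiplied by cell area.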 It is filed as cell-based. The note with it: for Sox 17 Intensity % of control: control = R&D Sys Activin A 100 ng/ml on same plate. In outline:
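Read-out was cell count and integrated SOX17 immunofluorescence by high-content imaging, with each well divided by the mean of the 100 ng/ml activin A control. Over the four-day culture, test samples were given in DMEM:F12 with 0.5% FCS plus 20 ng/ml Wnt3a for the first two days and in 2% FCS alone for the last two. Cells were H1 or H9 hESC clusters grown on Matrigel.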

Where [1] appears, read: supernatant concentration 10x, assay dilution 1:20, assay plates #007, #009, #010.
The mark [2] stands for this setting: supernatant concentration 10x, assay dilution 1:20.
Setting [3] is: supernatant concentration 1x, assay dilution 1:20.
Where [4] appears, read: supernatant concentration 10x, assay dilution 1:40.
Setting [5] is: supernatant concentration 50x, assay dilution 1:20, assay plates #008, #009.
The mark [6] stands for this setting: supernatant concentration 50x, assay dilution 1:20.

Consider 21 molecules from patent US20110091971A1, “Differentiation of Pluripotent Stem Cells” (priority 2008, published 2011).

Where a chain is given by its changes, count along the chain named.

B1: ACTN13: activin A variant peptide, SEQ ID 14 (protein)
chain: GLECDGKVNLCCKKQDFVSFKDIGWNDWIIAPSGYHANKCSGKCPSHIAGTSGSSLSFHSTVINHYRMRGHSPFSDMGSCCIPTKLRPMSMLYYDDGQNIIKKDIQNMIVEECGCS
Turning to B1, under setting [1], the “Cell Number average” value is 19861 and the “Sox 17 Intensity average” value was 2.78E+07. In addition, the “Sox 17 Intensity % of control” value under setting [2] amounted to 19.7%.

B2: ACTN36: activin A variant peptide, SEQ ID 37 (protein)
chain: B1 chain with K39R, S75A, D76N, S79A, I82V
In the case of B2, under setting [1], the “Cell Number average” value is given as 24664 and the “Sox 17 Intensity average” value came out at 2.60E+07. Besides, the “Sox 17 Intensity % of control” value under setting [2] is 18.4%.

B3: ACTN49: activin A variant peptide, SEQ ID 50 (protein)
chain: B1 chain with K39R, S41D, K43L, I82V
Regarding B3, under setting [1], the “Cell Number average” value is given as 10076 and the “Sox 17 Intensity average” value is given as 1.60E+07. In addition, under setting [2], the “Sox 17 Intensity % of control” value stood at 11.3%.

B4: ACTN6: activin A variant peptide, SEQ ID 7 (protein)
chain: B1 chain with D16W, K39R, S75A, S79A
modifications: Sytnthetic Construct
As to B4, under setting [3], the “Cell Number average” value came to 939, the “Sox 17 Intensity average” value stood at 1.234E+07 and the “Sox 17 Intensity % of control” value came to 6.7%. Besides, under setting [2], the “Cell Number average” value is 2359, the “Sox 17 Intensity average” value was 2.272E+07 and the “Sox 17 Intensity % of control” value came out at 12.4%. In addition, under setting [4], the “Cell Number average” value was 1790, the “Sox 17 Intensity average” value is 1.426E+07 and the “Sox 17 Intensity % of control” value is 7.8%.

B5: ACTN46: activin A variant peptide, SEQ ID 47 (protein)
chain: B1 chain with D16N, K39E, S41G, K43L, F74H, S75A, D76N, M77R, S79A
For B5, under setting [1], the “Cell Number average” value was 20757 and the “Sox 17 Intensity average” value turned out to be 1.99E+07. Also, under setting [2], the “Sox 17 Intensity % of control” value was found to be 14.1%.

B6: ACTN7: activin A variant peptide, SEQ ID 8 (protein)
chain: B1 chain with L10Y, D16H, K39S, K43L, D76Q
For B6, under setting [3], the “Cell Number average” value worked out at 1133, the “Sox 17 Intensity average” value was 1.108E+07 and the “Sox 17 Intensity % of control” value is listed as 6.0%. Also, under setting [2], the “Cell Number average” value came to 2714, the “Sox 17 Intensity average” value is listed as 1.904E+07 and the “Sox 17 Intensity % of control” value was 10.4%. For the same molecule, under setting [4], the “Cell Number average” value turned out to be 1387, the “Sox 17 Intensity average” value was 1.099E+07 and the “Sox 17 Intensity % of control” value was 6.0%.

B7: ACTN9: activin A variant peptide, SEQ ID 10 (protein)
chain: B1 chain with L10Y, S41T, S75A, M77L, S79A
With B7, the “Cell Number average” value worked out at 11391 under setting [3], 11456 under setting [2] and 9608 under setting [4]. Besides, the “Sox 17 Intensity average” value is given as 5.97E+05 under setting [3], 6.63E+05 under setting [2] and 4.19E+05 under setting [4]. The “Sox 17 Intensity % of control” value runs as follows: under setting [3], 2.3%; under setting [2], 2.6%; under setting [4], 1.6%.

B8: ACTN40: activin A variant peptide, SEQ ID 41 (protein)
chain: B1 chain with D16L, K39H, S41A, K43L, D76N, I82V
Turning to B8, under setting [1], the “Cell Number average” value was 11321 and the “Sox 17 Intensity average” value turned out to be 1.21E+08. Besides, the “Sox 17 Intensity % of control” value under setting [2] amounted to 85.6%.

B9: ACTN8: activin A variant peptide, SEQ ID 9 (protein)
chain: B1 chain with L10Y, I82V
As for B9, under setting [3], the “Cell Number average” value amounted to 363, the “Sox 17 Intensity average” value worked out at 5.578E+06 and the “Sox 17 Intensity % of control” value is recorded as 3.0%. Moreover, under setting [2], the “Cell Number average” value was 1419, the “Sox 17 Intensity average” value is on record as 1.181E+07 and the “Sox 17 Intensity % of control” value is 6.4%. Moreover, under setting [4], the “Cell Number average” value amounted to 372, the “Sox 17 Intensity average” value was 3.869E+06 and the “Sox 17 Intensity % of control” value is recorded as 2.1%.

B10: ACTN15: activin A variant peptide, SEQ ID 16 (protein)
chain: B1 chain with K39R, K43L, D76N
As to B10, under setting [1], the “Cell Number average” value is on record as 22700 and the “Sox 17 Intensity average” value worked out at 2.89E+07. Further, the “Sox 17 Intensity % of control” value under setting [2] stood at 20.5%.

B11: ACTN74: activin A variant peptide, SEQ ID 75 (protein)
chain: GLECDGKVNICCKKQSFGRAKDIGWNDWIIAPSGYHGGGCTGECPSHIAGTSGSSLSFHSTVINHYRMRGHSPFANLKSCCSPTKLRPMSMLYYDDGQNIIKKDIQGMVVEECGCT
In the case of B11, the “Cell Number average” value by setting is: under setting [1], 15049; under setting [5], 16143. For the same molecule, the “Sox 17 Intensity average” value is recorded as 3.30E+06 under setting [1] and 1.03E+07 under setting [5]. The “Sox 17 Intensity % of control” value runs as follows: under setting [2], 13.2%; under setting [6], 41.3%.

B12: ACTN78: activin A variant peptide, SEQ ID 79 (protein)
chain: B11 chain with S16L, R19Q, T41S, F74V, G107N
With B12, the “Cell Number average” value under setting [1] was 12585 and the “Cell Number average” value under setting [5] is listed as 16301. In addition, the “Sox 17 Intensity average” value is, setting by setting: under setting [1], 1.11E+06; under setting [5], 5.64E+06. In addition, the “Sox 17 Intensity % of control” value under setting [2] is listed as 4.4% and the “Sox 17 Intensity % of control” value under setting [6] is listed as 22.6%.

B13: ACTN94: activin A variant peptide, SEQ ID 95 (protein)
chain: B11 chain with R19Q, F74W, G107R, V110A
For B13, under setting [1], the “Cell Number average” value was 20142 and the “Sox 17 Intensity average” value was 1.51E+07. In addition, the “Sox 17 Intensity % of control” value under setting [2] came out at 10.7%.

B14: ACTN77: activin A variant peptide, SEQ ID 78 (protein)
chain: B11 chain with S16M, R19K, F74W, G107N
As for B14, under setting [1], the “Cell Number average” value amounted to 17696 and the “Sox 17 Intensity average” value is reported as 2.82E+07. Besides, under setting [2], the “Sox 17 Intensity % of control” value is given as 20.0%.

B15: ACTN50: activin A variant peptide, SEQ ID 51 (protein)
chain: B11 chain with S16L, A20T, T41S, F74V, G107N, V109K
For B15, under setting [1], the “Cell Number average” value is recorded as 22171 and the “Sox 17 Intensity average” value worked out at 1.72E+07. Moreover, under setting [2], the “Sox 17 Intensity % of control” value was 12.2%.

B16: ACTN56: activin A variant peptide, SEQ ID 57 (protein)
chain: B11 chain with R19Q, G39S, S82A, G107N, T116V
For the molecule B16, under setting [1], the “Cell Number average” value is recorded as 23413 and the “Sox 17 Intensity average” value was found to be 2.79E+07. The “Sox 17 Intensity % of control” value under setting [2] amounted to 19.8%.

B17: ACTN91: activin A variant peptide, SEQ ID 92 (protein)
chain: B11 chain with A20T, T41S, F74W, G107N
For the molecule B17, under setting [1], the “Cell Number average” value was determined as 17043 and the “Sox 17 Intensity average” value is on record as 1.12E+07. In addition, under setting [2], the “Sox 17 Intensity % of control” value is 7.9%.

B18: ACTN69: activin A variant peptide, SEQ ID 70 (protein)
chain: B11 chain with R19K, A20T, G107Q
B18: under setting [1], the “Cell Number average” value was 20178 and the “Sox 17 Intensity average” value worked out at 2.73E+07. In addition, the “Sox 17 Intensity % of control” value under setting [2] was determined as 19.4%.

B19: ACTN81: activin A variant peptide, SEQ ID 82 (protein)
chain: B11 chain with S16L, R19K, A20T, F74V, G107R
With B19, under setting [1], the “Cell Number average” value came to 19897 and the “Sox 17 Intensity average” value came out at 1.60E+07. Under setting [2], the “Sox 17 Intensity % of control” value was 11.4%.

B20: ACTN51: activin A variant peptide, SEQ ID 52 (protein)
chain: B11 chain with R19Q, A20T, T41S, G107R
With B20, under setting [1], the “Cell Number average” value was found to be 21780 and the “Sox 17 Intensity average” value is 1.85E+07. Also, the “Sox 17 Intensity % of control” value under setting [2] worked out at 13.1%.

B21: ACTN65: activin A variant peptide, SEQ ID 66 (protein)
chain: B11 chain with R19Q, A20T, G39S, T41S, V109K
Consider B21, for which, under setting [1], the “Cell Number average” value is 22058 and the “Sox 17 Intensity average” value is 3.23E+07. In addition, under setting [2], the “Sox 17 Intensity % of control” value is given as 22.9%.
